The values below come from PMC8586454, “Structural and Functional Insights Into Skl and Pal Endolysins, Two Cysteine-Amidases With Anti-pneumococcal Activity. Dithiothreitol (DTT) Effect on Lytic Activity” (Frontiers in Microbiology, 2021).

In one data set the target is T1, Pal (Streptococcus phage Dp-1, UniProt O03979).
T1 construct: full-length, untagged, E. coli pT7-7 (pPal, amplified from pMSP11); DEAE-cellulose purified with choline elution, dialysed
T1 sequence (O03979 1-296): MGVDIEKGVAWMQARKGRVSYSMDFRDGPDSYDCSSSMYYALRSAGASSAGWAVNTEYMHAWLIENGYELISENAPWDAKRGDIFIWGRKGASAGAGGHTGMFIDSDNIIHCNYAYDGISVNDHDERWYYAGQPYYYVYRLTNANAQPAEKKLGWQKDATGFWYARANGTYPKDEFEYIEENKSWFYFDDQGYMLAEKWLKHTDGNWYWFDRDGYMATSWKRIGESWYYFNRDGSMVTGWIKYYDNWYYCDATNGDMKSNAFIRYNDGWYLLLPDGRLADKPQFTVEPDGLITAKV
The data set can be described thus: SAXS of choline-bound dimer. Format: binding. The following applies: 20 mM PB pH 8.0, 4 °C; saturating choline.

Data set [1] has as its target Skl Y264H mutant (Streptococcus mitis prophage φSK137). Description: AUC; sedimentation velocity, 20°C, PB pH 6.5, under the conditions of the CD titration; choline saturating the lower affinity sites.
For data set [2] the target is unchanged. The data set can be described thus: AUC; sedimentation equilibrium, 20°C, 50 mM Tris–HCl pH 8.0, increasing choline.
Data set [3] deals with Skl endolysin (N-acetylmuramoyl-L-alanine amidase of the Streptococcus mitis prophage φSK137), wild type (Streptococcus mitis prophage φSK137). The data set can be described thus: AUC; sedimentation equilibrium, 20°C, single-species model; choline-saturated.
For data set [4] the target is unchanged. Description: AUC; sedimentation velocity, 20°C, PB pH 6.5, under the conditions of the CD titration; choline saturating the lower affinity sites.
Data set [5] has the same target. Description: SAXS; 4°C, 20 mM PB (Pal) or 50 mM Tris–HCl (Skl) pH 8.0, 2–8 mg/ml protein extrapolated to infinite dilution, saturating choline.
Data set [6] concerns the molecule itself. The data set is described as above.
Data set [7] concerns the molecule itself. Description: non-reducing SDS-PAGE (intermolecular disulfide); 0.36 mg/ml protein pretreated with 40 mM iodoacetamide, then 1% SDS, sample buffer without β-mercaptoethanol (SB), 12% gel, Coomassie stain.

Numbering of substitutions follows the chain as printed. In names and notes the source's numbering stands.

As for `C[N+](C)(C)CCO` [choline], the “SAXS of choline-bound dimer” value at Pal is reported as “Pal dimer in complex with choline”.

On to Skl Y264H mutant (enzyme), for which the percent remaining as monomer in data set [1] came to 50%. This molecule also returned a stoichiometry N in data set [2] of 2.

Regarding “Skl endolysin (N-acetylmuramoyl-L-alanine amidase of the Streptococcus mitis prophage φSK137), wild type (enzyme)”, the stoichiometry N in data set [3], in data set [4] and in data set [5] was 2 in each case.

B1: Pal endolysin (N-acetylmuramoyl-L-alanine amidase of the pneumococcal bacteriophage Dp-1), wild type (enzyme, UniProt O03979 1-296, looked up)
chain: T1 sequence (O03979 1-296)
notes: Pal-coding region amplified from pMSP11; No tag; 1 μM equals 0.0345 mg/ml. 'Full length' rests on 'Pal-coding region was PCR amplified'; also called Pal WT; Pal NAM-amidase; source: E. coli BL21(DE3) or C41(DE3), pT7-7 derivative (pPal), purified (DEAE-cellulose, eluted with choline)
For B1, the “stoichiometry N” value in data set [6] is 2.

B2: Pal C112S mutant (enzyme, pneumococcal bacteriophage Dp-1, UniProt O03979 1-296, looked up)
chain: T1 sequence (O03979 1-296) with C112S
modifications: free thiols blocked with iodoacetamide before SDS-PAGE
notes: Pal, NAM-amidase of the pneumococcal Dp-1 bacteriophage, with Cys112 changed to serine; source: E. coli BL21(DE3) or C41(DE3), pT7-7 derivative, purified (DEAE-cellulose, eluted with choline)
Regarding B2, the binding result in data set [7] was “binds”.

B3: Pal C112S–C250S double mutant (enzyme, pneumococcal bacteriophage Dp-1, UniProt O03979 1-296, looked up)
chain: T1 sequence (O03979 1-296) with C112S, C250S
modifications: free thiols blocked with iodoacetamide before SDS-PAGE
notes: Pal, NAM-amidase of the pneumococcal Dp-1 bacteriophage, with Cys112 and Cys250 changed to serine; source: E. coli BL21(DE3) or C41(DE3), pT7-7 derivative (made from pPal-C250S), purified (DEAE-cellulose, eluted with choline)
Regarding B3, the binding result in data set [7] is recorded as “binds”.

The term stoichiometry N denotes a count of units in the complex or per binding partner.
